Measurements as given in patent publication US11319341B2, “Immune-stimulating soluble doxorubicin-conjugated complex” (Yafei (Shanghai) Biopharmaceutical Co., Ltd., priority 2016, dated 2022).
Non-standard residues stand in square brackets, D forms with d. Residues, ends and D or L forms follow the SMILES beside them. ξ: configuration not given here. *: point of attachment. Doxorubicin(3'-N) = COc1cccc2c1C(=O)c1c(O)c3c(c(O)c1C2=O)C[C@@](O)(C(=O)CO)C[C@@H]3O[C@H]1C[C@H](N*)[C@H](O)[C@H](C)O1; Hexanoyl(6-maleimido) = O=C1C=CC(=O)N1CCCCCC(=O)*; Butanoyl(4-maleimido) = O=C1C=CC(=O)N1CCCC(=O)*; Propanoyl(3-maleimido) = O=C1C=CC(=O)N1CCC(=O)*; PEG6 = NCCOCCOCCOCCOCCOCCOCCC(=O)O; X2 = O=C1C=CC(=O)N1CCOCCOCCC(=O)*; PEG4 = NCCOCCOCCOCCOCCC(=O)O; PEG3 = NCCOCCOCCOCCC(=O)O; PEG2 = NCCOCCOCCC(=O)O; ξL = CC(C)CC(N)C(=O)O

Tests used:
[1] = Water solubility of freeze-dried compounds in water (observation and HPLC)
[2] = system: acidized human breast cancer (MDA-MB435) tumor tissue homogenates; experiment: Activation efficiency of the linker by tumor tissue homogenates (HPLC); format: biochemical; conditions: Table 4-1; 37° C., MDA-MB435 tumor tissue homogenates pH6.0, compound 1 mg/ml
Description: When the C selected AAN, The activation of different S-C-A linker and control linker was evaluated in the activation assay, The S-C-A conjugate was used to dissolve and they were diluted for ten times to a concentration of 0.1 mM/ml. At 37° C., sample compounds were added into 100 μg acidized human breast cancer (MDA-MB435) tumor tissue homogenates (pH6.0) in a concentration of 1 mg/ml. The enzyme in tumor tissue homogenates could release and detected by HPLC, thereby comparing the activation efficiency of the linker by the tumor tissue.

HT1080 cells = experiment: Efficacy in HT1080 tumor model; format: in vivo; conditions: HT1080, nude mice, 18 umol/kg IV once weekly for 3 weeks
From the text: Test purpose: to investigate the anti-tumor efficacy of QHL-086, QHL-092, QHL-095, QHL-087, QHL-010, QHL-117 in mice model for tumor treatment.
Test drug: C3, QHL-086, QHL-092, QHL-095, QHL-087, QHL-010, QHL-117 injections and mitomycin injection, diluted to corresponding concentrations by physiological saline when testing.
(§1) 1. Animal: nude mice of 6-8 weeks old, all female.
1) HT1080 cells were purchased from American type culture collection (ATCC) and identified according the specification provided by ATCC.
(§2) 2) Production of tumor. […] Mice were randomly grouped after the tumor reached at least 100 mm^3. Then treatment began and the day on which the treatment began was day 1.
According to the clinical application of C3, QHL-086, QHL-092, QHL-095, QHL-087, QHL-010, QHL-117 were intravenously injected (IV). C3, QHL-086, QHL-092, QHL-095, QHL-087, QHL-010, QHL-117 were administered in a low and same dose of 18 umol/kg. The control group was administered by physiological saline. Drugs were administered once weekly for 3 weeks.

[3] = system: Human liver cancer HepG2 cells; experiment: Efficacy on human liver cancer HepG2 cells in nude mice; format: in vivo; conditions: 54 umol/kg IV once weekly for four weeks
From the text: Test purpose: to investigate the anti-tumor efficacy of some compounds of the invention in mice model for tumor treatment.
Test drug: QHL-095, QHL-008, QHL-086, QHL-116, QHL-119, QHL-092, QHL-006, QHL-089, QHL-005, QHL-007, QHL-096, QHL-012, QHL-087, QHL-117, QHL-120, QHL-093, QHL-010, QHL-090, QHL-009, QHL-011 injections and control group injection, diluted to corresponding concentrations by physiological saline when testing.
as §1
1) Human liver cancer HepG2 cells were purchased from American type culture collection (ATCC) and identified according the specification provided by ATCC.
as §2
According to the clinical application of QHL-095, QHL-008, QHL-086, QHL-116, QHL-119, QHL-092, QHL-006, QHL-089, QHL-005, QHL-007, QHL-096, QHL-012, QHL-087, QHL-117, QHL-120, QHL-093, QHL-010, QHL-090, QHL-009, QHL-011, drugs were intravenously injected (IV). Compounds and control groups were administered in a dose of 54 umol/kg. The control group was administered by physiological saline. Drugs were administered once weekly for four weeks.

| Structure (SMILES) | solubility [1] [mg/mL] | further results |
| --- | --- | --- |
| COc1cccc2c1C(=O)c1c(O)c3c(c(O)c1C2=O)C[C@@](O)(C(=O)CO)C[C@@H]3O[C@H]1C[C@H](NC(=O)[C@H](CC(C)C)NC(=O)[C@H](CC(N)=O)NC(=O)[C@H](C)NC(=O)[C@H](C)NC(=O)[C@@H](NC(=O)CCCCCN2C(=O)C=CC2=O)C(C)C)[C@H](O)[C@H](C)O1 [QHL-123] ({Hexanoyl(6-maleimido)}-VAANL-{Doxorubicin(3'-N)}) | – | solubility (physchem): > 2 mg/mL |
| COc1cccc2c1C(=O)c1c(O)c3c(c(O)c1C2=O)C[C@@](O)(C(=O)CO)C[C@@H]3O[C@H]1C[C@H](NC(=O)[C@H](CC(C)C)NC(=O)[C@H](CC(N)=O)NC(=O)[C@H](C)NC(=O)[C@H](C)NC(=O)[C@H](CCC(=O)O)NC(=O)CCOCCOCCOCCNC(=O)CCCN2C(=O)C=CC2=O)[C@H](O)[C@H](C)O1 [QHL-069] ({Butanoyl(4-maleimido)-PEG3}-EAANL-{Doxorubicin(3'-N)}) | > 25 | – |
| COc1cccc2c1C(=O)c1c(O)c3c(c(O)c1C2=O)C[C@@](O)(C(=O)CO)C[C@@H]3O[C@H]1C[C@H](NC(=O)[C@H](CC(C)C)NC(=O)[C@H](CC(N)=O)NC(=O)[C@H](C)NC(=O)[C@H](C)NC(=O)CCOCCOCCOCCOCCNC(=O)CCCN2C(=O)C=CC2=O)[C@H](O)[C@H](C)O1 [QHL-105] ({Butanoyl(4-maleimido)-PEG4}-AANL-{Doxorubicin(3'-N)}) | > 10 | – |
| COc1cccc2c1C(=O)c1c(O)c3c(c(O)c1C2=O)C[C@@](O)(C(=O)CO)C[C@@H]3O[C@H]1C[C@H](NC(=O)[C@H](CC(C)C)NC(=O)[C@H](CC(N)=O)NC(=O)[C@H](C)NC(=O)[C@H](C)NC(=O)[C@H](Cc2c[nH]cn2)NC(=O)CCCCCN2C(=O)C=CC2=O)[C@H](O)[C@H](C)O1 [QHL-137] ({Hexanoyl(6-maleimido)}-HAANL-{Doxorubicin(3'-N)}) | > 5 | – |
| COc1cccc2c1C(=O)c1c(O)c3c(c(O)c1C2=O)C[C@@](O)(C(=O)CO)C[C@@H]3O[C@H]1C[C@H](NC(=O)[C@H](CC(C)C)NC(=O)[C@H](CC(N)=O)NC(=O)[C@H](C)NC(=O)[C@H](C)NC(=O)CCOCCOCCNC(=O)CCCN2C(=O)C=CC2=O)[C@H](O)[C@H](C)O1 [QHL-099] ({Butanoyl(4-maleimido)-PEG2}-AANL-{Doxorubicin(3'-N)}) | > 20 | – |
| COc1cccc2c1C(=O)c1c(O)c3c(c(O)c1C2=O)C[C@@](O)(C(=O)CO)C[C@@H]3O[C@H]1C[C@H](NC(=O)[C@H](CC(C)C)NC(=O)[C@H](CC(N)=O)NC(=O)[C@H](C)NC(=O)[C@H](C)NC(=O)[C@H](CCC(=O)O)NC(=O)CCOCCOCCNC(=O)CCN2C(=O)C=CC2=O)[C@H](O)[C@H](C)O1 [QHL-039] ({Propanoyl(3-maleimido)-PEG2}-EAANL-{Doxorubicin(3'-N)}) | > 20 | – |
| COc1cccc2c1C(=O)c1c(O)c3c(c(O)c1C2=O)C[C@@](O)(C(=O)CO)C[C@@H]3O[C@H]1C[C@H](NC(=O)[C@H](CC(C)C)NC(=O)[C@H](CC(N)=O)NC(=O)[C@H](C)NC(=O)[C@H](C)NC(=O)[C@H](CS)NC(=O)CCCCCN2C(=O)C=CC2=O)[C@H](O)[C@H](C)O1 [QHL-131] ({Hexanoyl(6-maleimido)}-CAANL-{Doxorubicin(3'-N)}) | > 10 | – |
| COc1cccc2c1C(=O)c1c(O)c3c(c(O)c1C2=O)C[C@@](O)(C(=O)CO)C[C@@H]3O[C@H]1C[C@H](NC(=O)[C@H](CC(C)C)NC(=O)[C@H](CC(N)=O)NC(=O)[C@H](C)NC(=O)[C@H](C)NC(=O)CCOCCOCCOCCNC(=O)CCN2C(=O)C=CC2=O)[C@H](O)[C@H](C)O1 [QHL-090] ({Propanoyl(3-maleimido)-PEG3}-AANL-{Doxorubicin(3'-N)}) | > 10 | – |
| COc1cccc2c1C(=O)c1c(O)c3c(c(O)c1C2=O)C[C@@](O)(C(=O)CO)C[C@@H]3O[C@H]1C[C@H](NC(=O)[C@H](CC(C)C)NC(=O)[C@H](CC(N)=O)NC(=O)[C@H](C)NC(=O)[C@H](C)NC(=O)[C@H](CCC(=O)O)NC(=O)CCOCCOCCOCCOCCOCCOCCNC(=O)CCN2C(=O)C=CC2=O)[C@H](O)[C@H](C)O1 [QHL-057] ({Propanoyl(3-maleimido)-PEG6}-EAANL-{Doxorubicin(3'-N)}) | > 25 | – |
| COc1cccc2c1C(=O)c1c(O)c3c(c(O)c1C2=O)C[C@@](O)(C(=O)CO)C[C@@H]3O[C@H]1C[C@H](NC(=O)[C@H](CC(C)C)NC(=O)[C@H](CC(N)=O)NC(=O)[C@H](C)NC(=O)[C@H](C)NC(=O)[C@H](CC(=O)O)NC(=O)CCOCCOCCN2C(=O)C=CC2=O)[C@H](O)[C@H](C)O1 [QHL-033] (X2-DAANL-{Doxorubicin(3'-N)}) | > 20 | – |
| COc1cccc2c1C(=O)c1c(O)c3c(c(O)c1C2=O)C[C@@](O)(C(=O)CO)C[C@@H]3O[C@H]1C[C@H](NC(=O)[C@H](CC(C)C)NC(=O)[C@H](CC(N)=O)NC(=O)[C@H](C)NC(=O)[C@H](C)NC(=O)[C@H](CCC(=O)O)NC(=O)CCOCCOCCN2C(=O)C=CC2=O)[C@H](O)[C@H](C)O1 [QHL-021] (X2-EAANL-{Doxorubicin(3'-N)}) | > 20 | – |
| COc1cccc2c1C(=O)c1c(O)c3c(c(O)c1C2=O)C[C@@](O)(C(=O)CO)C[C@@H]3O[C@H]1C[C@H](NC(=O)C(CC(C)C)NC(=O)[C@H](CC(N)=O)NC(=O)[C@H](C)NC(=O)[C@H](C)N)[C@H](O)[C@H](C)O1 (stereo partly shown) [C2 AANL-DOX] (H-AAN[ξL]-{Doxorubicin(3'-N)}) | < 1 | Activation (%) [2]: 42.1%; Size of tumor (mm^3) Day 28 (HT1080 cells): 318.5 ± 197.6 mm^3; inhibitory rate on tumor Day 28 (HT1080 cells): 81.8%; Size of tumor (mm^3) Day 28 [3]: 1564 ± 689.4 mm^3; inhibitory rate on tumor Day 28 [3]: 46.0% |
| COc1cccc2c1C(=O)c1c(O)c3c(c(O)c1C2=O)C[C@@](O)(C(=O)CO)C[C@@H]3O[C@H]1C[C@H](NC(=O)[C@H](CC(C)C)NC(=O)[C@H](CC(N)=O)NC(=O)[C@H](C)NC(=O)[C@H](C)NC(=O)[C@H](CC(=O)O)NC(=O)CCOCCOCCNC(=O)CCN2C(=O)C=CC2=O)[C@H](O)[C@H](C)O1 [QHL-042] ({Propanoyl(3-maleimido)-PEG2}-DAANL-{Doxorubicin(3'-N)}) | > 20 | – |
| COc1cccc2c1C(=O)c1c(O)c3c(c(O)c1C2=O)C[C@@](O)(C(=O)CO)C[C@@H]3O[C@H]1C[C@H](NC(=O)[C@H](CC(C)C)NC(=O)[C@H](CC(N)=O)NC(=O)[C@H](C)NC(=O)[C@H](C)NC(=O)[C@H](CCC(=O)O)NC(=O)CCOCCOCCNC(=O)CCCN2C(=O)C=CC2=O)[C@H](O)[C@H](C)O1 [QHL-063] ({Butanoyl(4-maleimido)-PEG2}-EAANL-{Doxorubicin(3'-N)}) | > 15 | – |
| COc1cccc2c1C(=O)c1c(O)c3c(c(O)c1C2=O)C[C@@](O)(C(=O)CO)C[C@@H]3O[C@H]1C[C@H](NC(=O)[C@H](CC(C)C)NC(=O)[C@H](CC(N)=O)NC(=O)[C@H](C)NC(=O)[C@H](C)NC(=O)[C@H](CC(N)=O)NC(=O)CCCCCN2C(=O)C=CC2=O)[C@H](O)[C@H](C)O1 [QHL-133] ({Hexanoyl(6-maleimido)}-NAANL-{Doxorubicin(3'-N)}) | > 2 | – |
| COc1cccc2c1C(=O)c1c(O)c3c(c(O)c1C2=O)C[C@@](O)(C(=O)CO)C[C@@H]3O[C@H]1C[C@H](NC(=O)[C@H](CC(C)C)NC(=O)[C@H](CC(N)=O)NC(=O)[C@H](C)NC(=O)[C@H](C)NC(=O)[C@H](C)NC(=O)CCCCCN2C(=O)C=CC2=O)[C@H](O)[C@H](C)O1 [QHL-122] ({Hexanoyl(6-maleimido)}-AAANL-{Doxorubicin(3'-N)}) | > 10 | – |
| COc1cccc2c1C(=O)c1c(O)c3c(c(O)c1C2=O)C[C@@](O)(C(=O)CO)C[C@@H]3O[C@H]1C[C@H](N)[C@H](O)[C@H](C)O1 [C1 DOX, Doxorubicin] | – | Size of tumor (mm^3) Day 28 (HT1080 cells): 754.4 ± 587.4 mm^3; inhibitory rate on tumor Day 28 (HT1080 cells): 56.8%; Size of tumor (mm^3) Day 28 [3]: 1683.4 ± 1087.4 mm^3; inhibitory rate on tumor Day 28 [3]: 41.9% |
